Measurements: publication doi:10.1101/869214

Molecular target: calf collagen type I (calf) (UniProt P02453)
Test: ELISA

Chain of UniProt P02453 (P02453 162-1217, chain 1 of 2): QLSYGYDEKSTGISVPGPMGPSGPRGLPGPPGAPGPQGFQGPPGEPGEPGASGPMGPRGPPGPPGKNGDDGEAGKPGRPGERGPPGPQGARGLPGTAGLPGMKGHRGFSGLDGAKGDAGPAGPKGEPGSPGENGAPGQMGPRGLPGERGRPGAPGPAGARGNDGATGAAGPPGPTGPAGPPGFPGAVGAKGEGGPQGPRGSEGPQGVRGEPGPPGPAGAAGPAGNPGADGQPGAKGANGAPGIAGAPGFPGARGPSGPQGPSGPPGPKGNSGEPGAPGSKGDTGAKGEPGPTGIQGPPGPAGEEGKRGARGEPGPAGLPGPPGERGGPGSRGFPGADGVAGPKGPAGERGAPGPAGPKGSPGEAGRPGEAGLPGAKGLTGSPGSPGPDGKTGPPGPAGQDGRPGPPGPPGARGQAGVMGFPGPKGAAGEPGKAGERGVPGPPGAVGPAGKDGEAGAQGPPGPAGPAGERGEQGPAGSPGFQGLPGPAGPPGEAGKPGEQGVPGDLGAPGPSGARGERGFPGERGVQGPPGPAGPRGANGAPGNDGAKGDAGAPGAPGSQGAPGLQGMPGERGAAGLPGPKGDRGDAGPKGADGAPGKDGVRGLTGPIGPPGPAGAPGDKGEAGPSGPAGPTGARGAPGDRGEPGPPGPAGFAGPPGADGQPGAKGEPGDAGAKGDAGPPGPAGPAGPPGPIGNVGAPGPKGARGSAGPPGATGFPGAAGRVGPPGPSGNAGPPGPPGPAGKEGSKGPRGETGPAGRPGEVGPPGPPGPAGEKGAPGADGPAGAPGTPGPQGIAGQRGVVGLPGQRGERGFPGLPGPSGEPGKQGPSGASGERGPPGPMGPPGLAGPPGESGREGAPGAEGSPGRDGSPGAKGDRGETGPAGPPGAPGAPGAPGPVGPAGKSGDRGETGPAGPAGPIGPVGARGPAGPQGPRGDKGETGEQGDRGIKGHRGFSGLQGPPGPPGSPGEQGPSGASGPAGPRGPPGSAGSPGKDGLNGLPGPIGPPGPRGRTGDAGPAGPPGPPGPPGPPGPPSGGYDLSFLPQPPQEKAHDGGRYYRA
Chain of UniProt P02453 (P02465 80-1117, chain 2 of 2, further chain): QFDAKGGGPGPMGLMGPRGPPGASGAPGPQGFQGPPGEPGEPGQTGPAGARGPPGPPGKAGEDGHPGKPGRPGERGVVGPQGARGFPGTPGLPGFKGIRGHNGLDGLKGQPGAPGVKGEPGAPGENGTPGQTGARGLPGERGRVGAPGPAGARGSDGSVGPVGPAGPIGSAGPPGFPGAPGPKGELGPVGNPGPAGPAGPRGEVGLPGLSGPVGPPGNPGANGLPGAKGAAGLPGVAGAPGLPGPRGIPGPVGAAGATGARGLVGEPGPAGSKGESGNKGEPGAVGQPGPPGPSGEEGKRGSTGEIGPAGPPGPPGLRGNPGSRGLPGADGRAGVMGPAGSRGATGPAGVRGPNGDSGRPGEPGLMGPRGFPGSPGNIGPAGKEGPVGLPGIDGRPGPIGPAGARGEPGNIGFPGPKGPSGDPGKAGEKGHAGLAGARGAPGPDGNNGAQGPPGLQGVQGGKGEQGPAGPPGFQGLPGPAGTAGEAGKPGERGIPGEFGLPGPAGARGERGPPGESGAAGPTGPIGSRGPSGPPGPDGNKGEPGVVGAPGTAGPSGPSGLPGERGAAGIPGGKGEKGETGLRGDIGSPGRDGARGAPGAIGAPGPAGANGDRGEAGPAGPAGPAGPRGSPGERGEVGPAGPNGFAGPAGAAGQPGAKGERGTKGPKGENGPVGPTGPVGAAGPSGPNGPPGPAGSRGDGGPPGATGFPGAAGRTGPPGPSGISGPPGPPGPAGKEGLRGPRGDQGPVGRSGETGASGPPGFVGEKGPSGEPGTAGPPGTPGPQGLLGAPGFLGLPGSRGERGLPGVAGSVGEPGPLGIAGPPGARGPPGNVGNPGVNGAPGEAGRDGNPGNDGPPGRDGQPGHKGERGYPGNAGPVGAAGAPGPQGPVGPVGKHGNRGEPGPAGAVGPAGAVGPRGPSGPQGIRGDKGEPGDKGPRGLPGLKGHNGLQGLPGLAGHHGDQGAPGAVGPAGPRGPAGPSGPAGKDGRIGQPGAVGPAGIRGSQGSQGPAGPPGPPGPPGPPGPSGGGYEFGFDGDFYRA

percent binding at pH 4: 50%
Substance: Yersinia enterocolitica adhesin YadA head domains with a C-terminal His6-tag (domain or fragment)
